According to patent US20050080013A1 (Pfizer, published 2005):
Non-standard residues stand in square brackets, D forms with d. Primed or numbered codes have the meaning given here. No end group written: not given here. Nal″ = naphthylalanine; Aib = CC(C)(N)C(=O)O

T1: lecithin:cholesterol acyltransferase (LCAT), purified from human plasma (human, UniProt P04180 25-440)
T1 sequence (looked up): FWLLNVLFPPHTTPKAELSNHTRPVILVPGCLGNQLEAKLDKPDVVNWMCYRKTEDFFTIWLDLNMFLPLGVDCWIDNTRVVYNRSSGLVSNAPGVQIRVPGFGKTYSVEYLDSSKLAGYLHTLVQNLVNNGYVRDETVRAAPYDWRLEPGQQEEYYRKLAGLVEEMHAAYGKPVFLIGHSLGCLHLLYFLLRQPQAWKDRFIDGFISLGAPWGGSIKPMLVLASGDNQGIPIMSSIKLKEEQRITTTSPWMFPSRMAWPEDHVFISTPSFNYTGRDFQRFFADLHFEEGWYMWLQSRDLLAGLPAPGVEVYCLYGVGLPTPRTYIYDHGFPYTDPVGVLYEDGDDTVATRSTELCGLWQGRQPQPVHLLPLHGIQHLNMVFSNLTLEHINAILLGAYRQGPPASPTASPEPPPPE


The binders below were run against T1, lecithin:cholesterol acyltransferase … (assay: cell-based or functional assay).

Binder | ACTIVITY (%) LCAT
PVLDLFENLLERLLDALQKKLK [peptide 159] | 28%
PVLDLFRELLNELLE[Nal″]LKQKLK [peptide 1] | 120%
PVLELFLNLLERLLDALQKKLK [peptide 156] | 35%
PAADAFREAANEAAEAAKQKAK [peptide 105] | 1%
PVLDLFRELLNELLEAGKQKLK [peptide 12] | 70%
PVLDLFRELLNELLEALXQXLX (Orn (O) at 18, 20, 22) [peptide 14] | 61%
PELDEFREKLNE[Aib]LEALKQKLK [peptide 117] | 0%
PVLDEFREKLNEELEA[Aib]KQKLK [peptide 119] | 0%
PVLELFLNLWERLLDALQKKLK [peptide 155] | 38%
PVLELFENLLERLLDALQKKLK [peptide 146] | 86%
PVLDEFREKLNE[Aib]LEALEQKLK [peptide 118] | 0%
PVLELFENLLERLLDWLQKKLK [peptide 160] | 28%
PVLDLFKELLQELLEALKQKLK [peptide 11] | 72%
PLLELFENLLERLLDALQKKLK [peptide 150] | 57%
PVLDLFREKLNEELEALKQKLK [peptide 106] | 0%
PVLDEFREKLNEELE[Aib]LKQKLK [peptide 120] | 0%
PVLELFENLLERGLDALQKKLK [peptide 154] | 39%
PVLDEFREKLWE[Aib]WEALKQKLK [peptide 111] | 0%
PVLELFENWLERLLDALQKKLK [peptide 162] | 27%
KLKQKLAELLENLLERFLDLVP (all D-amino acids (lower case)) [peptide 107] | 0%
PLLNELLEALKQKLK [peptide 104] | 1%
PVLELFENLLERLLEALQKKLK [peptide 161] | 27%
PVLDLFRELLNELLELLKQKLK [peptide 127] | 47%
PVLDEFREKLNERLEALKQKLK [peptide 109] | 0%
PVLDEFREKLNE[Aib][Aib]EALKQKLK [peptide 110] | 0%
PVLDLFRWLLNE[Aib]LEALKQKLK [peptide 108] | 0%
GVLELFENLLERLLDALQKKLK [peptide 145] | 100%
PVLELFENLGERLLDALQKKLK [peptide 151] | 55%
PVLELFENLLERLGDALQKKLK [peptide 148] | 75%
PVLELFENLLERLWDALQKKLK [peptide 163] | 26%

More lines, now with the values ahead:

ACTIVITY (%) LCAT | Binder
0% | PVLDEFREKLNE[Aib]MEALKQKLK [peptide 114]
0% | PHLDEFREKLNE[Aib]LEALKQKLK [peptide 116]
76% | PVLELFENLLERLFDALQKKLK [peptide 147]
50% | PVFELFENLLERLLDALQKKLK [peptide 152]
1% | PVLDEFRELLNEELEALKQKLK [peptide 103]
67% | GVLDLFRELLNEGLEALKQKLK [peptide 13]
0% | PVLDEFREKLNEELEALWQKLK [peptide 121]
0% | PVLDEFREKLNEPLEALKQKLK [peptide 113]
30% | PVLELFLNLLERLLDWLQKKLK [peptide 158]
111% | [dP]VLELFENLLERLLDALQKKLK [peptide 144]
0% | PVLDEFREKLNE[Aib]SEALKQKLK [peptide 112]
30% | PVLEFFENLLERLLDALQKKLK [peptide 157]
0% | PKLDEFREKLNE[Aib]LEALKQKLK [peptide 115]
49% | AVLELFENLLERLLDALQKKLK [peptide 153]
79% | PVLDLFRELLNELLEA[Nal″]KQKLK [peptide 10]
0% | PVLDEFREKLNEELEWLKQKLK [peptide 122]
63% | PVLELFENLWERLLDALQKKLK [peptide 149]
